Laboratory results from patent US20150322474A1 (UNIVERSITY OF THE UNIVERSITY OF ABERDEEN, published 2015).
Numbering of substitutions follows the chain as printed. Names may count otherwise.

T1: VGAGIGFPAYDG peptide substrate
T1 chain: VGAGIGFPAYDG

T2: VGAGIGFPAYRG peptide substrate (modified recognition sequence, Asp to Arg)
T2 chain: VGAGIGFPAYRG

T3: VPAPIPFPAYDG peptide (substrate mimic, P8-P4')
T3 peptide: VPAPIPFPAYDG

B1: PatGmacΔ2 (deletion of residues 578-614, the helix-loop-helix insertion and the N-terminal extension of α4) (protein)
chain: GEDEIESAGVSASEVESSATKQKVALHPHDLDERIPGLADLHNQTLGDPQITIVIIDGDPDYTLSCFEGAEVSKVFPYWHEPAEPILNDHACHVTSTIVGQEHSPVFGIAPNCRVINMPQDAVIRGNYDDVMSPLNLARAIDLALELGANIIHCAFCRPTQTSEGEEILVQAIKKCQDNNVLIVSPTGNNSNESWCLPAVLPGTLAVGAAKVDGTPCHFSNWGGNNTKEGILAPGEEILGAQPCTEEPVRLTGTSMAAPVMTGISALLMSLQVQQGKPVDAEAVRTALLKTAIPCDPEVVEEPERCLRGFVNIPGAMKVLFGQ
B2: PatGmacΔ1 (deletion of residues 578-608, the helix-loop-helix insertion motif) (protein)
chain: GEDEIESAGVSASEVESSATKQKVALHPHDLDERIPGLADLHNQTLGDPQITIVIIDGDPDYTLSCFEGAEVSKVFPYWHEPAEPITKDRIVLNDHACHVTSTIVGQEHSPVFGIAPNCRVINMPQDAVIRGNYDDVMSPLNLARAIDLALELGANIIHCAFCRPTQTSEGEEILVQAIKKCQDNNVLIVSPTGNNSNESWCLPAVLPGTLAVGAAKVDGTPCHFSNWGGNNTKEGILAPGEEILGAQPCTEEPVRLTGTSMAAPVMTGISALLMSLQVQQGKPVDAEAVRTALLKTAIPCDPEVVEEPERCLRGFVNIPGAMKVLFGQ
B3: PatGmac K598D (protein)
chain: GEDEIESAGVSASEVESSATKQKVALHPHDLDERIPGLADLHNQTLGDPQITIVIIDGDPDYTLSCFEGAEVSKVFPYWHEPAEPITPEDYAAFQSIRDQGLKGKEDEEALEAVIPDTKDRIVLNDHACHVTSTIVGQEHSPVFGIAPNCRVINMPQDAVIRGNYDDVMSPLNLARAIDLALELGANIIHCAFCRPTQTSEGEEILVQAIKKCQDNNVLIVSPTGNNSNESWCLPAVLPGTLAVGAAKVDGTPCHFSNWGGNNTKEGILAPGEEILGAQPCTEEPVRLTGTSMAAPVMTGISALLMSLQVQQGKPVDAEAVRTALLKTAIPCDPEVVEEPERCLRGFVNIPGAMKVLFGQ
B4: PatGmacH618A (inactive mutant of the PatG macrocyclase domain) (enzyme)
chain: B3 chain with D107K, H127A
B5: PatGmac wild-type (macrocyclase domain of PatG, residues 492-851) (protein)
chain: B3 chain with D107K
B6: PatGmac K594D (protein)
chain: B3 chain with K103D, D107K
B7: PatGmac triple mutant R589D K594D K598D (protein)
chain: B3 chain with R98D, K103D

How the values were obtained:
[1] = biological target: T1, VGAGIGFPAYDG peptide substrate
[2] = biological target: T2, VGAGIGFPAYRG peptide substrate …
[3] = biological target: T3, VPAPIPFPAYDG peptide (substrate mimic, …); experiment: X-ray crystal structure of the complex, 2.63 Å (co-crystallised, then soaked in 7.5 mM peptide)

Binder | Cyclic ion count (%) (M + H = 699) [1] | Linear ion count (%) (M + H = 717) [1] | Unprocessed ion count (%) (M + H = 1123) [1] | linear product, LC-MS [2] | binding result [3] | macrocyclization reaction, LC-MS [2]
B1 | 0 | > 99 | < 1 | – | – | –
B2 | 0 | 92 | 8 | – | – | –
B3 | 0 | 100 | 0 | PatGmac K598D produced cyclo[VGAGIGFP] with only 8% linear product, at a rate over an order of magnitude faster than wild-type PatGmac with VGAGIGFPAYDG | – | –
B4 | – | – | – | – | binds | –
B5 | 100 | 0 | 0 | – | – | reacted extremely slowly with the substrate giving equal amounts of macrocyclized and linear products
B6 | 29 | 71 | 0 | – | – | reacted extremely slowly with the substrate giving equal amounts of macrocyclized and linear products
B7 | 0 | 6 | 94 | – | – | reacted extremely slowly with the substrate giving equal amounts of macrocyclized and linear products
